Values quoted from earlier work, collected in patent publication US6964771B1, “Method for stably incorporating substances within dry, foamed glass matrices” (Elan Drug Delivery Limited, priority 1995, dated 2005).

Details: as delivered, dosage of 300 μg

B1: Neupogen®: biopharmaceutical delivered at a dosage of 300 μg (protein, chains of the INN, looked up)
chain: MTPLGPASSLPQSFLLKCLEQVRKIQGDGAALQEKLCATYKLCHPEELVLLGHSLGIPWAPLSSCPSQALQLAGCLSQLHSGLFLYQGLLQALEGISPELGPTLDTLQLDVADFATTIWQQMEELGMAPALQPTQGAMPAFASAFQRRAGGVLVASHLQSFLEVSYRVLRHLAQP
Question: For B1, which specific activity is on record?
Answer: 1±0.6×10^8 U/mg
